{
  "source": "paper PMC1373692",
  "binders": {"B1": {"name": "A/C 10 nt 5' tail (dsDNA)", "DNA 1": "GCCCAGGTGGCAGGCCCTAGGGTGGAGGGGAGGCCGCCGGCATGGGGACGCGATGGGCGGAGGCG", "DNA 2": "CGCCTCCGCCCATCGCGTCCCCATGCCGGCGGCCTCCCCTCCACCCTAGGGCCTG", "modifications": "5' phosphate on A from labeling"}, "B2": {"name": "A/B 20 nt 5' tail (dsDNA)", "DNA 1": "B1 DNA 1", "DNA 2": "CGCCTCCGCCCATCGCGTCCCCATGCCGGCGGCCTCCCCTCCACC", "modifications": "5' phosphate on A from labeling"}, "B3": {"name": "oligonucleotide A (65mer) (ssDNA)", "DNA": "B1 DNA 1", "modifications": "5' phosphate from labeling"}, "B4": {"name": "A/E 65 bp duplex (dsDNA)", "DNA 1": "B1 DNA 1", "DNA 2": "CGCCTCCGCCCATCGCGTCCCCATGCCGGCGGCCTCCCCTCCACCCTAGGGCCTGCCACCTGGGC", "modifications": "5' phosphate on A from labeling"}, "B5": {"name": "A/D 4 nt 5' tail (dsDNA)", "DNA 1": "B1 DNA 1", "DNA 2": "CGCCTCCGCCCATCGCGTCCCCATGCCGGCGGCCTCCCCTCCACCCTAGGGCCTGCCACCT", "modifications": "5' phosphate on A from labeling"}, "B6": {"name": "A 5 nt 5' tail (dsDNA)", "DNA 1": "B1 DNA 1", "DNA 2": "CGCCTCCGCCCATCGCGTCCCCATGCCGGCGGCCTCCCCTCCACCCTAGGGCCTGCCACC", "modifications": "5' phosphate on A from labeling"}, "B7": {"name": "A 7 nt 5' tail (dsDNA)", "DNA 1": "B1 DNA 1", "DNA 2": "CGCCTCCGCCCATCGCGTCCCCATGCCGGCGGCCTCCCCTCCACCCTAGGGCCTGCCA", "modifications": "5' phosphate on A from labeling"}, "B8": {"name": "A 8 nt 5' tail (dsDNA)", "DNA 1": "B1 DNA 1", "DNA 2": "CGCCTCCGCCCATCGCGTCCCCATGCCGGCGGCCTCCCCTCCACCCTAGGGCCTGCC", "modifications": "5' phosphate on A from labeling"}, "B9": {"name": "A 9 nt 5' tail (dsDNA)", "DNA 1": "B1 DNA 1", "DNA 2": "CGCCTCCGCCCATCGCGTCCCCATGCCGGCGGCCTCCCCTCCACCCTAGGGCCTGC", "modifications": "5' phosphate on A from labeling"}},
  "key": {"[1]": {"target": "T1, RecJ (native wild-type) (Escherichia coli, UniProt P21893 1-577)", "T1 sequence": "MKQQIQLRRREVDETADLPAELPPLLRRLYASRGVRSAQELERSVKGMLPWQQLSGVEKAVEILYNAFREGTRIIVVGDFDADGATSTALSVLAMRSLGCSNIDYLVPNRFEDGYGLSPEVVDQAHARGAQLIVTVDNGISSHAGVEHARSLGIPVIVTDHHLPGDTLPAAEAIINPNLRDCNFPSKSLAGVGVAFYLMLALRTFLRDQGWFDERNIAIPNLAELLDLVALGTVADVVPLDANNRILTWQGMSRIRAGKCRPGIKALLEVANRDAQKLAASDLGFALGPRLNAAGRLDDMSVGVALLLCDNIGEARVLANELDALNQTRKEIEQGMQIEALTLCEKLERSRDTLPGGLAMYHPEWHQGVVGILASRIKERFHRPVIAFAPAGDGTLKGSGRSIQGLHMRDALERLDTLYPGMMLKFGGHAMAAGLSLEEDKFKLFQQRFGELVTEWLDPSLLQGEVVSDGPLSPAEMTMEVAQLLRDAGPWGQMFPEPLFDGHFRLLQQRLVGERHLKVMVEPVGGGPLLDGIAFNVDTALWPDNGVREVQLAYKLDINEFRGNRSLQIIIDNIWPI", "assay": "EMSA"}, "[2]": {"target": "T2, RecJf (MBP-RecJ fusion) (UniProt P21893 1-577)", "T2 sequence": "T1 sequence", "assay": "EMSA"}, "[3]": {"target": "SSB (UniProt P0AGE0 2-178)", "sequence (P0AGE0 2-178)": "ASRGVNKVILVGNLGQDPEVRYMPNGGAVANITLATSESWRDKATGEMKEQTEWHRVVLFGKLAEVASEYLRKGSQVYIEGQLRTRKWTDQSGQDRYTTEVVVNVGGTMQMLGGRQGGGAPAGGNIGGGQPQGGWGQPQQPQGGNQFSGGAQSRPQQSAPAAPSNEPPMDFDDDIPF", "assay": "EMSA"}, "[4]": {"target": "T1, RecJ (native wild-type)", "assay": "EMSA", "remark": "listed apart in the source"}, "[5]": {"target": "RecJ (native wild-type);SSB (Escherichia coli;Escherichia coli?, UniProt P21893;P0AGE0 1-577;2-178, |)", "sequence (P0AGE0 2-178, one chain of several)": "as the sequence (P0AGE0 2-178) above", "assay": "EMSA, supershift"}, "[6]": {"target": "T1, RecJ (native wild-type)", "assay": "EMSA", "remark": "listed apart in the source"}, "[7]": {"target": "T1, RecJ (native wild-type)", "assay": "EMSA", "remark": "listed apart in the source"}},
  "note": "Like-named read-outs stand apart in the source and are kept apart here.",
  "data": [
    {"binder": "B1", "values": [
      {"measurement": "Kd", "setting": "[1]", "result": 9.5, "unit": "nM"}
    ]},
    {"binder": "B2", "values": [
      {"measurement": "Kd", "setting": "[1]", "result": 33, "unit": "nM"}
    ]},
    {"binder": "B3", "values": [
      {"measurement": "binding result", "setting": "[2]", "result": "binds"},
      {"measurement": "binding result", "setting": "[3]", "result": "binds"},
      {"measurement": "binding result", "setting": "[4]", "result": "binds"},
      {"measurement": "binding result", "setting": "[5]", "result": "binds"}
    ]},
    {"binder": "B4", "values": [
      {"measurement": "binding result", "setting": "[6]", "result": "no binding"}
    ]},
    {"binder": "B5", "values": [
      {"measurement": "binding result", "setting": "[6]", "result": "no binding"}
    ]},
    {"binder": "B6", "values": [
      {"measurement": "binding result", "setting": "[7]", "result": "no binding"}
    ]},
    {"binder": "B7", "values": [
      {"measurement": "binding result", "setting": "[7]", "result": "binds"}
    ]},
    {"binder": "B8", "values": [
      {"measurement": "binding result", "setting": "[7]", "result": "binds"}
    ]},
    {"binder": "B9", "values": [
      {"measurement": "binding result", "setting": "[7]", "result": "binds"}
    ]}
  ]
}
